Measured values taken from patent publication US20050053993A1, “Uses of an endothelial cell receptor” (priority 2002, published 2005).

Columns and labels:
caspase 7 = assay: Caspase 7 activity in HT1080 cells; format: cell-based, human; details: rK5 100 nM and hypoxia, overnight
Experimental: FIG. 16 is a graph showing the effect of rK5 and hypoxia treatment on caspace 7 activity in HT1080 cells. HT1080 cells were plated in 48 well plates. rK5 at 100 nM was added to the plates. HT1080 cells were incubated overnight in hypoxic conditions (95% N2, 5% CO2) compared to controls, which were incubated in 5% CO2. Caspase 7 activity in cell lysates was detected by the activation of an ELISA fluorescent substrate (R&D Systems).

P388 = assay: Tumor cell proliferation, P388; format: cell-based; details: P388, 72 hours
Experimental: (§1) Cell Proliferation Assay. The effect of rK5 and rK5 peptides on endothelial cells were assessed using a proliferation assay with 1% BSA and 3 ng/ml bFGF in serum-free media. Relative cell numbers in each well of a 96 well microplate after incubation for 72 hours in the absence or presence of inhibitors were determined by using the AQueous cell proliferation assay (Promega, San Luis Obispo, Calif.). For all other cell lines tested for proliferation, minimal growth media was used (Cao, Y., Ji, R., Davidson, D., Schaller, J., Marti, D., Sohndel, S., McCance, S., O'Reilly, M., Llinas, M., and Folkman, J. Kringle domains of human angiostatin. Characterization of the anti-proliferative activity on endothelial cells. (1996) J. Biol. Chem. 271, 29461-29467). Results are presented as the percent inhibition of control cell (bFGF-induced) proliferation.

[1] = test system: EAHY cell surface proteins (~75 kDa and ~95 kDa); assay: S-tag-K5 affinity pull-down of biotinylated EAHY surface proteins; format: binding; details: 100 nM S-tag-K5; 1 μM peptides, 10 μM cold rK5
Experimental: The second method used to identify cell surface rK5 binding proteins was described previously (Zhang, J. C., et al, supra). Surface proteins on 4×10^6 EaHy cells were labeled with NHS-biotin. The cells were washed and lysed (M-Per, Pierce). Cell lysates were mixed with S-tag K5 for 1 hour at room temperature. S-tag K5 bound proteins were precipitated with S-protein agarose (Pierce). Bound proteins were eluted with excess rK5 or with excess PRKLYDY (SEQ ID NO:1) peptide. Eluted proteins were visualized with avidin-HRP and a chemiluminescent substrate. Mass spectroscopic analysis was used to identify the major protein bands.
In particular, surface proteins on 1×10^6 EAHY cells were labeled with NHS-biotin. The cells were washed 3× with PBS and lysed with M-pur. Cell lysates were mixed with (A) 100 nM S-tag-K5, (B) 100 nM S-tag-K5 plus 1 μM PRKLYDY, (C) 100 nM S-tag-K5 plus 10 μM cold rK5 and (D) 100 nM S-tag-K5 and N-terminal K5 peptide at 1 μM for 1 hour at room temperature. The K5 binding proteins were precipitated with S-protein-agarose. Bound proteins were eluted with 50 mM glycine buffer at pH 3.0 and run for PAGE analysis. Surface proteins (biotinylated) that bind K5 were visualized with avidin-HPR and a chemiluminescent substrate.

HMVEC cells = assay: Apoptosis of stimulated endothelial cells (histone ELISA); format: cell-based, human
Experimental: FIG. 9B is a graph showing the induction by rK5 of apoptosis in stimulated endothelial cells. The rate of apoptosis was measured in HMVEC cells using a histone detection kit (Markwell, M. A. K. Anal Biochem 1982, 125, 427-432.) HMVECs were grown in 96 well plates. Recombinant K5 at various concentrations was added to plates and incubated overnight. Apoptosis was determined from triplicate samples and the Apoptotic index was determined by dividing the absorbance from the treated cells by the absorbance from the untreated cells.
Assessment of Cellular Apoptosis: The effects of rK5 and rK5 peptide-induced apoptosis were determined with a histone ELISA apoptosis assay (Roche, Indianapolis, Ind.)(Mayr M, Li C, Zou Y, Huemer U, Hu Y, Xu Q. Biomechanical stress-induced apoptosis in vein grafts involves p38 mitogen-activated protein kinases. FASEB J. 2000 Feb.; 14(2):261-70) Cells (5000 per well) were grown in 96 well plates. rK5 and/or an antibody to GRP78 were added to plates and incubated overnight. Apoptosis was determined from triplicate samples and the Apoptotic Index was determined by dividing the absorbance from the treated cells by the absorbance from the untreated cells.

neutrophils = assay: Neutrophil migration; format: cell-based; details: concentrations up to 1000-fold higher than for endothelial cell migration; data not shown
B16F10 = assay: Tumor cell proliferation, B16F10; format: cell-based; details: B16F10, 72 hours
Experimental: as §1

MDA 445 = assay: Tumor cell proliferation, MDA 445; format: cell-based; details: MDA 445, 72 hours
Experimental: as §1

IC50 values for cell proliferation (P388): >100 µg/mL | IC50 values for cell proliferation (B16F10): >100 µg/mL | IC50 values for cell proliferation (MDA 445): >100 µg/mL
B1: rK5: recombinant kringle 5 fragment of human plasminogen (residues 450-543), expressed in E. coli or yeast (protein)
chain: LLPDVETPSEEDCMFGNGKGYRGKRATTVTGTPCQDWAAQEPHRHSIFTPETNPRAGLEKNYCRNPDGDVGGPWCYTTNPRKLYDYCDVPQCAA
caspase 7 activity (caspase 7): significant increase in caspase 7 activity | competition of protein binding to the S-tag K5 column [1]: competed | induction of endothelial cell apoptosis (HMVEC cells): 1 nM | apoptosis of stimulated endothelial cells (HMVEC cells; overnight, FIG. 9B): induced | inhibition of migration of neutrophils (neutrophils): failed to inhibit
